Publication PMC3629940, “Exploring the structure and function of Thermotoga maritima CorA reveals the mechanism of gating and ion selectivity in Co^2+/Mg^2+ transport” (Biochemical Journal, 2013)
Substitutions are numbered along the chain they refer to. Names may count otherwise.

B1: Thermotoga maritima CorA N288L mutant (natural protein)
chain: MEEKRLSAKKGLPPGTLVYTGKYREDFEIEVMNYSIEEFREFKTTDVESVLPFRDSSTPTWINITGIHRTDVVQRVGEFFGIHPLVLEDILNVHQRPKVEFFENYVFIVLKMFTYDKNLHELESEQVSLILTKNCVLMFQEKIGDVFDPVRERIRYNRGIIRKKRADYLLYSLIDALVDDYFVLLEKIDDEIDVLEEEVLERPEKETVQRTHQLKRNLVELRKTIWPLREVLSSLYRDVPPLIEKETVPYFRDVYDHTIQIADTVETFRDIVSGLLDVYLSSVSNKTLEVMKVLTIIATIFMPLTFIAGIYGMNFEYMPELRWKWGYPVVLAVMGVIAVIMVVYFKKKKWL
notes: CorA of Thermotoga maritima with N288L; source: E. coli, overexpressed, purified (1% DDM solubilisation, Ni-NTA, TEV cleavage, Superdex 200)
B2: Thermotoga maritima CorA T295L mutant (natural protein)
chain: B1 chain with L288N, T295L
notes: CorA of Thermotoga maritima with T295L; source: E. coli, overexpressed, purified (1% DDM solubilisation, Ni-NTA, TEV cleavage, Superdex 200)
B3: Thermotoga maritima CorA T299L mutant (natural protein)
chain: B1 chain with L288N, T299L
notes: CorA of Thermotoga maritima with T299L; source: E. coli, overexpressed, purified (1% DDM solubilisation, Ni-NTA, TEV cleavage, Superdex 200)

Biological target: the molecule itself
Assay: SEC; size-exclusion chromatography of the mutants to verify channel intactness (Supplementary Figure S2); conditions of this run not told

Binding result, binds:
B1, B2, B3
